Patent US20180282418A1 (CANCER RESEARCH TECHNOLOGY, published 2018)
Residue numbers refer to the chain shown, from its start.

T1: full-length human MMRN2 with a His tag overexpressed in HEK293T cells (human, UniProt Q9H8L6 23-949)
T1 construct: Used as lysate of transfected HEK293T cells; also called hMMRN2; MMRN2 protein lysate; not shown: His tag of the pHL-Avitag3 vector
T1 sequence: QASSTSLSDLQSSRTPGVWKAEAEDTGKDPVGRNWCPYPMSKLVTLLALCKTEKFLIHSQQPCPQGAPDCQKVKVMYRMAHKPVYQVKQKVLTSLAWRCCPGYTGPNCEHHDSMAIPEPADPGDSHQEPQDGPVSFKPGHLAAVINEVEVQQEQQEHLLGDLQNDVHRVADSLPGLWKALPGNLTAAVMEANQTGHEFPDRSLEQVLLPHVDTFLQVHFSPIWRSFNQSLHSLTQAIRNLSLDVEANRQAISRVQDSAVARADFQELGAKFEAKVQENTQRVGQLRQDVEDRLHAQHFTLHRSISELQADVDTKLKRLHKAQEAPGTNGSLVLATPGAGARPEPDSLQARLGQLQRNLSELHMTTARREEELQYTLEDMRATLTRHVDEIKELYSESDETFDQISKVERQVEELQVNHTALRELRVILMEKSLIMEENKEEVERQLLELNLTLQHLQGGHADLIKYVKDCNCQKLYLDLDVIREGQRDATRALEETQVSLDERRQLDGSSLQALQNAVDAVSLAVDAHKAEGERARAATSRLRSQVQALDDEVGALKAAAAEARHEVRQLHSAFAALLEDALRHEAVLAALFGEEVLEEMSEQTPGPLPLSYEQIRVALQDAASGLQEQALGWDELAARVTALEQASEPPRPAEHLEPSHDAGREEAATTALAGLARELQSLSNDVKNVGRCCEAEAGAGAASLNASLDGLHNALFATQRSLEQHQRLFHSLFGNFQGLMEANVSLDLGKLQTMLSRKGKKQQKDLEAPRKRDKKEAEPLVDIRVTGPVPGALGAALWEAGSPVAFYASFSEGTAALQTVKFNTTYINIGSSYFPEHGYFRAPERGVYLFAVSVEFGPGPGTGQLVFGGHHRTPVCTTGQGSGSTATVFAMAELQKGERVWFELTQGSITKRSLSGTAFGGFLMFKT

T2: CLEC14A with regions 122-142 of CD141 (human, UniProt Q86T13 22-490)
T2 construct: also called 122-142 chimera; not shown: C-terminal GFP tag (all constructs have one)
T2 sequence: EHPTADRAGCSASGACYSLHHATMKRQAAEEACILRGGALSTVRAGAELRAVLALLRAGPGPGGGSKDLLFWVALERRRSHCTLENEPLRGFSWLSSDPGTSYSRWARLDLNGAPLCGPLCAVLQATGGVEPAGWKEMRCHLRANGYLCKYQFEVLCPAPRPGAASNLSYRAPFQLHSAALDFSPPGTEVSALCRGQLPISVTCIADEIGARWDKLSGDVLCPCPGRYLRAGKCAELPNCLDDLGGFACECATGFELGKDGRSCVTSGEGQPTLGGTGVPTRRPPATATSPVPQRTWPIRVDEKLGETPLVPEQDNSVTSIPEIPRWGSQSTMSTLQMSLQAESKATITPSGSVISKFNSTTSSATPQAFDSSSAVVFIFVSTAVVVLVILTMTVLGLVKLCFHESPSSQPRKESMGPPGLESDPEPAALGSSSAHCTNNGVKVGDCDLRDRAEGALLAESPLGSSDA

B1: CLEC14A with regions 97-108 of CD141 (receptor)
chain: EHPTADRAGCSASGACYSLHHATMKRQAAEEACILRGGALSTVRAGAELRAVLALLRAGPGPGGGSKDLLFWVALQLPPGCGDPKRLPLRGFSWLSSDPGGLESDTLQWVEEPQRSCTARRCAVLQATGGVEPAGWKEMRCHLRANGYLCKYQFEVLCPAPRPGAASNLSYRAPFQLHSAALDFSPPGTEVSALCRGQLPISVTCIADEIGARWDKLSGDVLCPCPGRYLRAGKCAELPNCLDDLGGFACECATGFELGKDGRSCVTSGEGQPTLGGTGVPTRRPPATATSPVPQRTWPIRVDEKLGETPLVPEQDNSVTSIPEIPRWGSQSTMSTLQMSLQAESKATITPSGSVISKFNSTTSSATPQAFDSSSAVVFIFVSTAVVVLVILTMTVLGLVKLCFHESPSSQPRKESMGPPGLESDPEPAALGSSSAHCTNNGVKVGDCDLRDRAEGALLAESPLGSSDA
notes: also called this mutant; not shown: C-terminal GFP tag (all constructs have one)
B2: CLEC14A monoclonal antibody C4 (antibody, V domains shown)
VH: QVQLQQSGAELMKPGASVKISCKATGYTFSSYWIEWVNRRPGHGLEWIGEILPGSGSTNYNEKFKGKATFTADTSSNTAYMQLSSLTSEDSAVYYCARGGDYDEEYYLMDYWGQGTTLTVSS
VL: QIVLTQSPAIMSASPGEKVTMTCSASSSVSYMYWYQQKPGSSPRLLIYDTSNLASGVPVRFSGSGSGTSYSLTISRMEAEDAATYYCQQWSSYPLTFGAGTKLEIKR
notes: Mouse monoclonal antibody raised against murine CLEC14A-Fc; The entries carry cloning residues (N-terminal MA on VH, C-terminal AA on VL); also called CRT4; clone C4
B3: CLEC14A monoclonal antibody C5 (antibody, V domains shown)
VH: AEVQLQQSGAELMKPGASVKISCKATGYTFSSYWIEWVNQRPGHGLEWIGEILPGSGSTNYNEKFKGKATFTADTSSNTAYMQLSSLTSEDSAVYYCARGGDYDEEYYAMDYWGQGTSVTL
VL: B2 VL with A82G, I105L
notes: CLEC14A monoclonal antibody; also called CRT5
B4: HA-CLEC14A (CLEC14A wild type with an N-terminal HA tag) expressed in HEK293T cells (receptor)
chain: EHPTADRAGCSASGACYSLHHATMKRQAAEEACILRGGALSTVRAGAELRAVLALLRAGPGPGGGSKDLLFWVALERRRSHCTLENEPLRGFSWLSSDPGGLESDTLQWVEEPQRSCTARRCAVLQATGGVEPAGWKEMRCHLRANGYLCKYQFEVLCPAPRPGAASNLSYRAPFQLHSAALDFSPPGTEVSALCRGQLPISVTCIADEIGARWDKLSGDVLCPCPGRYLRAGKCAELPNCLDDLGGFACECATGFELGKDGRSCVTSGEGQPTLGGTGVPTRRPPATATSPVPQRTWPIRVDEKLGETPLVPEQDNSVTSIPEIPRWGSQSTMSTLQMSLQAESKATITPSGSVISKFNSTTSSATPQAFDSSSAVVFIFVSTAVVVLVILTMTVLGLVKLCFHESPSSQPRKESMGPPGLESDPEPAALGSSSAHCTNNGVKVGDCDLRDRAEGALLAESPLGSSDA
notes: also called CLEC14A wild type (WT); not shown: N-terminal HA tag

Legend:
[1] = target: T1, full-length human MMRN2 with a His tag …; experiment: method for MMRN2 not told
[2] = target: B1; experiment: flow cytometry on HEK293T cells
[3] = target: T3, wild type thrombomodulin with GFP tag expressed in HEK293T cells (UniProt P07204 19-575); experiment: flow cytometry on GFP-gated HEK293T cells
T3 construct: whole, on cells; also called WT CD141; CD141; not shown: C-terminal GFP tag
Experimental: (§1) FIG. 15—Binding of CRT antibodies was analysed using flow cytometry. All constructs have a C-terminus GFP tag so green cells were gated and stained red. All CRT antibodies bind to CLEC14A wild type with a C terminal GFP tag expressed in HEK293T cells. None of the CRT antibodies bind to wild type thrombomodulin with GFP tag expressed in HEK293T cells.
(§2) Binding of CRT antibodies was analysed using flow cytometry. All constructs have a C-terminus GFP tag so green cells were gated and stained red. All CRT antibodies bind WT CLEC14A and—as expected—none binds to WT CD141 (FIG. 15). In addition, none of the antibodies bound to Chimera 5 (except slight binding by CRT2) and all of the antibodies bind to Chimera 6 (except CRT2) (FIG. 15). This confirms that the binding site of the antibodies CRT1, 3, 4 and 5 and MMRN2 are within the C type lectin domain. It is possible that CRT2 binds on a region between the CTLD and sushi domain.

[4] = target: Chimera 6 (CLEC14A with SUSHI of CD141) fused to GFP tag; experiment: flow cytometry on GFP-gated HEK293T cells
Experimental: as §1, §2

[5] = target: T2, CLEC14A with regions 122-142 of CD141; experiment: flow cytometry; the filing says the chimera did not fold correctly
[6] = target: T1, full-length human MMRN2 with a His tag …; experiment: far Western blot of HEK293T lysates with MMRN2 protein lysate, non-reduced
Description: FIG. 13—MMRN2 directly binds to either the C-type lectin or sushi domain of CLEC14A under non-reduced conditions. HEK293T cells were mock transfected or transfected with pCS2 vectors containing CLEC14A wild type (WT) or constructs with each major domain deleted (Δ) with an N-terminal HA tag. Upon far western blotting with MMRN2 protein lysate, binding can be seen in all mutants except those missing the C-type lectin domain (CTLD) or the sushi domain. An anti-HA blot was included to show all mutant proteins were expressed.

T3 sequence (P07204 19-575): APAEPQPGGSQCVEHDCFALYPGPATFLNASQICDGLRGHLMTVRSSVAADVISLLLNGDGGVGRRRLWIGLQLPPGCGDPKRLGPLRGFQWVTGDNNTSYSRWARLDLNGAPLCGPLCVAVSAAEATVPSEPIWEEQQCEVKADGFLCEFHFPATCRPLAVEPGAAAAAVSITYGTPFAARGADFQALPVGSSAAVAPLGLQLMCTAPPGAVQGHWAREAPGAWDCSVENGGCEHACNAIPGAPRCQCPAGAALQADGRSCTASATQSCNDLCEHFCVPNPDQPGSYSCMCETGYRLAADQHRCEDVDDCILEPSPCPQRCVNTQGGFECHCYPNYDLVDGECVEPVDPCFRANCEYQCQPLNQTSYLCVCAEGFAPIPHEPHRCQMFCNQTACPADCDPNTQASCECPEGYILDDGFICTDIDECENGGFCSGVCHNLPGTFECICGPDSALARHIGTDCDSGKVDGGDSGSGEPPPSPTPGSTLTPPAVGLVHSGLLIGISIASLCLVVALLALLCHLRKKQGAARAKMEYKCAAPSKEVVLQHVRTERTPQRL

binding result [1]	binding result [2]	binding result [3]	binding result [4]	binding result [5]	binding result [6]	Binder
no binding	–	–	–	–	–	B1
–	no binding	no binding	binds	no binding	–	B2
–	no binding	no binding	–	no binding	–	B3
–	–	–	–	–	binds	B4
